Assay [1] has as its target nitrilotriacetate monooxygenase component B from Mycobacterium thermoresistibile (Mycobacterium thermoresistibile). As to the kind of experiment: SEC; Superdex 75 26/60 in 20 mM HEPES pH 7.0, 300 mM NaCl, 5% glycerol, 1 mM TCEP. In general terms: Size exclusion chromatography separates by hydrodynamic size, large species first.
Assay [2] has the same target. As to the kind of experiment: crystal structure; apo structure at 1.6 Å, space group P212121; two independent dimers in the asymmetric unit; crystals from 0.2 M magnesium chloride, 0.1 M MES pH 6.0, 20% PEG 6000 at 289 K.

Consider “nitrilotriacetate monooxygenase component B from Mycobacterium thermoresistibile (enzyme)”, for which the stoichiometry N in assay [1] and in assay [2] was 2 throughout.

The term stoichiometry N denotes a count of units in the complex or per binding partner.
